# Source: patent publication US20220098290A1 (JUNTENDO EDUCATIONAL FOUNDATION, published 2022)
# T1: Del 52 type mutant CALR protein (full-length) (human, UniProt P27797 18-417)
# T1 construct: mature; also called 52-nucleotide deletion type; CALR Del 52
# T1 sequence (looked up): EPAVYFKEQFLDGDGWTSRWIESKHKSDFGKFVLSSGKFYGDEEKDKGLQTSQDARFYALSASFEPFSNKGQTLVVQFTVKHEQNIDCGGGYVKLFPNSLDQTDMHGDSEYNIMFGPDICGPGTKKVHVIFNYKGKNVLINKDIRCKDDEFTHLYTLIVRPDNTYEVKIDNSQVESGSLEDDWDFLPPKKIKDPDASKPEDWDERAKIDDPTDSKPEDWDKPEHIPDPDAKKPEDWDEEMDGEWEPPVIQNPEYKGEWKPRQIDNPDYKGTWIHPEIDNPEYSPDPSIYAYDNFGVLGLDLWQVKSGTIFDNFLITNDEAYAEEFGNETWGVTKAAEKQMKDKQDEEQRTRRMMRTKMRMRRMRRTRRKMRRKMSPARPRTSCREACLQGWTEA
# T2: peptide having cysteine at the amino-terminal of the amino acid sequence (RRMMRTKMR) included in SEQ ID NO: 1
# T2 peptide: CRRMMRTKMR
# T3: peptide having cysteine at the amino-terminal of the amino acid sequence (RRMMRTKMR) included in SEQ ID NO: 1
# T3 construct: Synthetic peptide, analyte in SPR; also called antigen used for production of the antibody
# T3 peptide: CRRMMRTKMR
# Experiments:
# [1] = molecular target: T1, Del 52 type mutant CALR protein …; assay: immunoblotting and ELISA on Del 52 and its alanine mutants
# Experimental: It was verified that clone B3, C6, and G1 antibodies recognize the amino acid sequence used as an antigen on the mutant CALR protein. The reactivities of the respective antibodies against mutant CALR proteins each having alanine substituted for one amino acid at each position of the amino acids used as the antigen and the amino acids around it were evaluated by immunoblotting (FIG. 13A) and ELISA (FIG. 13B).
# The Del 52 type mutant CALR proteins each having alanine (A) substituted for one amino acid at each position of the amino acids in the region from the 367th threonine (T) to the 378th arginine (R) or the protein not having substitution were expressed in HEK 293T cells, and culture supernatants containing secreted mutant CALR proteins were prepared by centrifugation (1,600 g×5 min, 4° C.). The resulting protein solutions were each heat-treated in the presence of SDS and a reducing agent, then developed on a gel by SDS polyacrylamide electrophoresis, electrically transferred on a PVDF membrane, and reacted with a TBS-T solution containing 5% skimmed milk at room temperature for 1 hour, followed by reaction with a 5% BSA/TBS-T solution containing a peroxidase-labeled clone B3, C6, or G1 antibody or a mouse anti-CALR antibody (Abcam plc., Cat #ab22683) at 4° C. overnight. The PVDF membrane reacted with the mouse anti-CALR antibody was washed with a TBS-T solution and was then reacted with a 5% skimmed milk/TBS-T solution containing a peroxidase-labeled anti-mouse IgG antibody (Jackson Immuno Research Inc., Cat #115-035-003) at room temperature for 1 hour. Subsequently, all of the PVDF membranes were washed with a TBS-T solution and were then reacted with a peroxidase luminescence reagent (Thermo Fisher Scientific K.K., Cat #34094). The resulting signals were detected using a FUSION image pickup apparatus (manufactured by Vilber-Lourmat S.A.).
# [2] = molecular target: T2, peptide having cysteine at the …; assay: SPR
# [3] = molecular target: T3, peptide having cysteine at the …; assay: SPR (Biacore T200), clone B3 antibody immobilised, peptide at 1.25-20 nM
# Experimental: Sensor chips (GE Healthcare, Cat #BR100530) for surface plasmon resonance analysis were loaded on a surface plasmon resonance analyzer Biacore T200 (GE Healthcare) and were equilibrated with an HBS-EP buffer (GE Healthcare, Cat #BR100669). Clone B3 antibody adjusted to a concentration of 10 μg/mL with Acetate 5.5 (GE Healthcare, Cat #BR100352) was immobilized using an Amine coupling kit (GE Healthcare, Cat #BR100050) at an immobilized amount of 200 RU. Subsequently, surface plasmon resonance was measured using a peptide having cysteine at the amino-terminal of the amino acid sequence ([…]) included in SEQ ID NO: 1 adjusted to concentrations of 20, 10, 5, 2.5, and 1.25 nM with an HBS-EP buffer, and the dissociation constant was acquired with Biacore T200 Evaluation Software.
Binder,binding result [1],Kd [2] [nM],binding result [3]
"clone C6 antibody (antibody, V domains shown, Rat monoclonal antibody purified from a hybridoma, detected with anti-rat IgG; also called rat clone C6 antibody) VH: QVQLQQSGAELVKPGSSVKISCKASGYTFTSYFVHWIKQQPGDGLEWIGWIYPGDGDTEYNHKFNGKSTLTADRSSSTAYMQLSSLTSEDSAVYFCARGNYYDGREVMDAWGQGASVTVSS VL: DVVLTQTPPTLSATIGQSVSISCRSSQSLLDSDGETYLNWLLQRPGQSPQLLIYSVSNLESGVPNRFSGSGSETDFTLKISGMEAEDLGVYYCMQATHGPYTFGAGTKLELK",binds,–,–
"clone G1 antibody (antibody, V domains shown, Rat monoclonal antibody purified from a hybridoma, detected with anti-rat IgG; also called rat clone G1 antibody) VH: QVQLQQSGAELVKPGSSVKISCKASGYTFTSYFVHWIKQQPGDGLEWIGWIYPGDGDTEYNQKFNGKATLTADRSSSTAYMQLSSLTSEDSAVYFCARGNYYDGREVMDAWGQGASVTVSS VL: DVVLTQTPPTLSATIGQSVSISCRSSQSLLDSDGETYLNWLLQRPGQCPQLLIYSVSNLESGVPNRFSGSGSETDFTLKISGVEAEDLGVYYCMQGTHGPYTFGAGTKLELK",binds,–,–
"clone B3 antibody (antibody, V domains shown, Rat monoclonal antibody purified from a hybridoma (WKY/Izm rat x mouse SP2 myeloma), detected with anti-rat IgG; also called rat clone B3 antibody) VH: QVQLQQSGAELVKPGSSVKISCKASGYTFTRNFIHWIKQQPGNGLEWIGWIFPGDGDTEYNQKFNGKATLTADKSSSTAYMQLSSLTSEDSAVYFCARGNYNYEYFDYWGQGVMVTVSS VL: DIQMTQSPASLSASLGETVSIECLASEDIYSYLAWYQQKPGKSPQLLIFAANRLQDGVPSRFSGSGSGTQFSLKISGMQPEDEGDYFCLQGSKFPYTFGPGTKLELN",binds,0.855,binds
